Results from patent US6495314 (Scripps Research, dated 2002).
Where a chain is given by its changes, count along the chain named.

T1: Ac-CWAcp-PPPALPPKKR.amide, C3G-derived peptide designed for attachment to an affinity column (N-terminal acetyl; ε-aminocaproic acid (Acp, B) at position 3; C-terminal amide; on the column the Cys side chain is coupled to iodoacetyl agarose (Sulfolink))
T1 construct: also called Acetyl-CWAcp-C3G; Ac-CWBPPPALPPKKR.amide
T1 peptide: CWPPPALPPKKR

T2: control peptide Ac-CAcpYGGFL.amide (YGGFL = leucine enkephalin) (not fully specified (residue 1); also: Cys side chain coupled to Sulfolink agarose)
T2 construct: also called Ac-CBYGGFL.amide; Leucine-Enkephalin agarose column
T2 peptide: Ac-CYGGFL-NH2

B1: c-Crk N-terminal SH3 domain (134-191) analogue, D^163K^164 replaced by Gly-[COS]-βAla (other)
chain: AEYVRALFDFNGNDEEDLPFKKGDILRIRGXPEEQWWNAEDSEGKRGMIPVPYVEKYR
modifications: not fully specified; Gly-[COS]-βAla unit (-NH-CH2-CO-S-CH2-CH2-CO-) in place of D163-K164; backbone thioester
notes: Positions count on murine c-Crk; X = -S-CH2CH2-CO- unit; also called DK; Gly-SβAla analogue
B2: c-Crk N-terminal SH3 domain (134-191) analogue, K^164P^165 replaced by Gly-[COS]-βAla (other)
chain: B1 chain with G30D, X31G, P32X
modifications: not fully specified; Gly-[COS]-βAla unit (-NH-CH2-CO-S-CH2-CH2-CO-) in place of K164-P165; backbone thioester
notes: Positions count on murine c-Crk; X = -S-CH2CH2-CO- unit; also called KP; Gly-SβAla analogue
B3: c-Crk N-terminal SH3 domain (134-191) analogue, N^146D^147 replaced by Gly-[COS]-βAla (other)
chain: B1 chain with N13G, D14X, G30D, X31K
modifications: not fully specified; Gly-[COS]-βAla unit (-NH-CH2-CO-S-CH2-CH2-CO-) in place of N146-D147; backbone thioester
notes: Positions count on murine c-Crk; X = -S-CH2CH2-CO- unit; Tested crude in a pooled array; also called ND
B4: c-Crk N-terminal SH3 domain (134-191) analogue, D^147E^148 replaced by Gly-[COS]-βAla (other)
chain: B1 chain with D14G, E15X, G30D, X31K
modifications: not fully specified; Gly-[COS]-βAla unit (-NH-CH2-CO-S-CH2-CH2-CO-) in place of D147-E148; backbone thioester
notes: Positions count on murine c-Crk; X = -S-CH2CH2-CO- unit; Tested crude in a pooled array; also called DE
B5: c-Crk N-terminal SH3 domain (134-191) analogue, E^148E^149 replaced by Gly-[COS]-βAla (other)
chain: B1 chain with E15G, E16X, G30D, X31K
modifications: not fully specified; Gly-[COS]-βAla unit (-NH-CH2-CO-S-CH2-CH2-CO-) in place of E148-E149; backbone thioester
notes: Positions count on murine c-Crk; X = -S-CH2CH2-CO- unit; Tested crude in a pooled array
B6: c-Crk N-terminal SH3 domain (134-191) analogue, dipeptide DI (157-158) replaced by Gly-[COS]-βAla (other)
chain: B1 chain with D24G, I25X, G30D, X31K
modifications: not fully specified; Gly-[COS]-βAla unit (-NH-CH2-CO-S-CH2-CH2-CO-) in place of D157-I158; backbone thioester
notes: Positions count on murine c-Crk; X = -S-CH2CH2-CO- unit; also called Gly-SβAla analogue
B7: c-Crk N-terminal SH3 domain (134-191) analogue, dipeptide IL (158-159) replaced by Gly-[COS]-βAla (other)
chain: B1 chain with I25G, L26X, G30D, X31K
modifications: not fully specified; Gly-[COS]-βAla unit (-NH-CH2-CO-S-CH2-CH2-CO-) in place of I158-L159; backbone thioester
notes: as for B6
B8: c-Crk N-terminal SH3 domain (134-191) analogue, dipeptide LR (159-160) replaced by Gly-[COS]-βAla (other)
chain: B1 chain with L26G, R27X, G30D, X31K
modifications: not fully specified; Gly-[COS]-βAla unit (-NH-CH2-CO-S-CH2-CH2-CO-) in place of L159-R160; backbone thioester
notes: as for B6
B9: c-Crk N-terminal SH3 domain (134-191) analogue, dipeptide RI (160-161) replaced by Gly-[COS]-βAla (other)
chain: B1 chain with R27G, I28X, G30D, X31K
modifications: not fully specified; Gly-[COS]-βAla unit (-NH-CH2-CO-S-CH2-CH2-CO-) in place of R160-I161; backbone thioester
notes: as for B6
B10: c-Crk N-terminal SH3 domain (134-191) analogue, dipeptide GD (156-157) replaced by Gly-[COS]-βAla (other)
chain: B1 chain with D24X, G30D, X31K
modifications: not fully specified; Gly-[COS]-βAla unit (-NH-CH2-CO-S-CH2-CH2-CO-) in place of G156-D157; backbone thioester
notes: G156 stays Gly; Positions count on murine c-Crk; X = -S-CH2CH2-CO- unit; also called Gly-SβAla analogue
B11: c-Crk N-terminal SH3 domain (134-191) analogue, dipeptide ED (149-150) replaced by Gly-[COS]-βAla (other)
chain: B1 chain with E16G, D17X, G30D, X31K
modifications: not fully specified; Gly-[COS]-βAla unit (-NH-CH2-CO-S-CH2-CH2-CO-) in place of E149-D150; backbone thioester
notes: as for B5
B12: c-Crk N-terminal SH3 domain (134-191) analogue, dipeptide DL (150-151) replaced by Gly-[COS]-βAla (other)
chain: B1 chain with D17G, L18X, G30D, X31K
modifications: not fully specified; Gly-[COS]-βAla unit (-NH-CH2-CO-S-CH2-CH2-CO-) in place of D150-L151; backbone thioester
notes: as for B5
B13: c-Crk N-terminal SH3 domain (134-191) analogue, dipeptide PF (152-153) replaced by Gly-[COS]-βAla (other)
chain: B1 chain with P19G, F20X, G30D, X31K
modifications: not fully specified; Gly-[COS]-βAla unit (-NH-CH2-CO-S-CH2-CH2-CO-) in place of P152-F153; backbone thioester
notes: It is one of the 19 dipeptide positions within c-Crk(146-165); Positions count on murine c-Crk; X = -S-CH2CH2-CO- unit; Tested crude in a pooled array
B14: c-Crk N-terminal SH3 domain (134-191) analogue, dipeptide FK (153-154) replaced by Gly-[COS]-βAla (other)
chain: B1 chain with F20G, K21X, G30D, X31K
modifications: not fully specified; Gly-[COS]-βAla unit (-NH-CH2-CO-S-CH2-CH2-CO-) in place of F153-K154; backbone thioester
notes: as for B13
B15: c-Crk N-terminal SH3 domain (134-191) analogue, dipeptide KK (154-155) replaced by Gly-[COS]-βAla (other)
chain: B1 chain with K21G, K22X, G30D, X31K
modifications: not fully specified; Gly-[COS]-βAla unit (-NH-CH2-CO-S-CH2-CH2-CO-) in place of K154-K155; backbone thioester
notes: as for B13
B16: c-Crk N-terminal SH3 domain (134-191) analogue, dipeptide KG (155-156) replaced by Gly-[COS]-βAla (other)
chain: B1 chain with K22G, G23X, G30D, X31K
modifications: not fully specified; Gly-[COS]-βAla unit (-NH-CH2-CO-S-CH2-CH2-CO-) in place of K155-G156; backbone thioester
notes: as for B13

Key:
[1] = biological target: T1, Ac-CWAcp-PPPALPPKKR.amide, C3G-derived …; test: 19-member array on C3G peptide affinity column, MALDI MS readout
[2] = biological target: T2, control peptide Ac-CAcpYGGFL.amide …; test: nine-member array on control peptide column, A280
Procedure: (§1) The column was then washed with 0.5 M NaCl buffer to remove nonspecific binding proteins from the column. Specifically bound protein analogues were then eluted with 1 M hydroxylamine bufffer. Amounts of eluted peptide were monitored by UV absorbance at 280 nm. This procedure was used for both the C3G peptide column and for the control column loaded with Ac-C-AcpYGGFL.amide.
(§2) Affinity chromatography of the arrays of protein analogues was carried out as follows. […] After incubation at room temperature for a period of 6–8 hours the column was washed with 0.5 M NaCl in 0.1 M sodium phosphate, pH 7.0 buffer (6×1 mL) to remove any non-specifically bound proteins. The first two 1 mL fractions were collected and immediately mixed with an equal volume of 1 M NH_2OH, 20 mM NH_4HCO_3, pH 5.5 buffer to cleave any thioester-containing protein analogues. […] Samples of the eluted fractions were monitored by UV absorbance at 280 nm. This procedure was used for both the C3G peptide column and for the control column loaded with Ac-C-Acp-YGGFL.amide. To accommodate MALDI analysis, both the 0.5M NaCl wash and 1 M NH_2OH fractions were desalted on a low pressure, disposable C-18 column, washed with HPLC buffer A and peptide fragments eluted with 1.5 mL 60% acetonitrile in water, 0.1% TFA.

[3] = biological target: T1, Ac-CWAcp-PPPALPPKKR.amide, C3G-derived …; test: Example 2: nine-member array on C3G peptide affinity column, MALDI MS readout
Procedure: as §1, §2

| Binder | binding result [1] | binding result [2] | binding result [3] |
| --- | --- | --- | --- |
| B1 | binds | no binding | – |
| B2 | binds | no binding | – |
| B3 | binds | – | – |
| B4 | binds | – | – |
| B5 | binds | – | – |
| B6 | no binding | no binding | – |
| B7 | no binding | no binding | – |
| B8 | no binding | no binding | – |
| B9 | no binding | no binding | – |
| B10 | – | no binding | no binding |
| B11 | no binding | – | – |
| B12 | no binding | – | – |
| B13 | no binding | – | – |
| B14 | no binding | – | – |
| B15 | no binding | – | – |
| B16 | no binding | – | – |
